For one series, the target named is T1, SSBNg (Neisseria gonorrhoeae, UniProt Q5F7Y0 1-174).
T1 sequence: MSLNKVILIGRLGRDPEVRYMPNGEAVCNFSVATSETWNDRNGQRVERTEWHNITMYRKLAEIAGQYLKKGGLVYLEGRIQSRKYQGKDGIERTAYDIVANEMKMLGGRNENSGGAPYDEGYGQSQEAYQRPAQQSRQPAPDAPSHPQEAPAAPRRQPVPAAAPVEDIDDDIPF
Kind of series: EMSA; 50 uM nucleotides ssDNA; SSB 10 nM-10 uM; fully bound at 1/10 SSB; affinity similar to SSBEc; EMSA: 20 mM Tris-Cl 39% cation (pH 8.3), 0.5 M NaCl, 1 mM EDTA, 50% glycerol, 10 min at 37 C; 4% native PAGE at 4 C. The note with it: protein: recombinant; tags: none stated (pET21a, native purification); chain copies: 4; label: 5'-6FAM; single strand.

In another series the target is SSBEc (Escherichia coli, UniProt P0AGE0 1-178). Kind of series: EMSA; 50 uM nucleotides ssDNA; SSB 10 nM-10 uM; fully bound at 1/10 SSB; affinity similar to SSBNg; EMSA: 20 mM Tris-Cl 39% cation (pH 8.3), 0.5 M NaCl, 1 mM EDTA, 50% glycerol, 10 min at 37 C; 4% native PAGE at 4 C. The note with it: protein: recombinant; chain copies: 4; label: 5'-6FAM; single strand. Background: In EMSA bound probe runs differently from free probe, usually more slowly.
SSBEc, sequence (P0AGE0 whole entry): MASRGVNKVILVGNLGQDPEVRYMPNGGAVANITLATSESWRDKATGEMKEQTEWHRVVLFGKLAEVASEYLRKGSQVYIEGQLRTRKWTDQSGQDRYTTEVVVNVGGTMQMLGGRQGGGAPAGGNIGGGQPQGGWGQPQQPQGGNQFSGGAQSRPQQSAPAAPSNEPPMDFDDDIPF

We go through one molecule from article PMC3040777, “Purification and Characterization of the RecA Protein from Neisseria gonorrhoeae”.

B1: OCN324 50-mer (ssDNA)
DNA: TGCCTCGCGGTAGCTCTTCTCGGAGCGCACGATTCGCACTGCTGATGTTC
In the case of B1, the binding result in the series with SSBNg and with SSBEc was “binds” in each case.
